From publication PMC6521355, “Enzymatic Conversion of RBCs by α-N-Acetylgalactosaminidase from Spirosoma linguale” (Enzyme Research, 2019)
One block for each molecule: values may come before it.

Legend:
[1] = molecular target: Spirosoma linguale α-N-acetylgalactosaminidase (Spirosoma linguale); assay: SEC; analytical gel filtration of the tag-free purified enzyme, Zorbax GF-250 column, 30°C, TBS (50 mM Tris 150 mM NaCl) pH 7.4, 1.0 mL/min; mass from Ve/Vo against five protein standards
[2] = molecular target: T1, S. linguale α-NAGA (SlNAGA) (Spirosoma linguale, UniProt D2QUW2); assay: Product inhibition of 4-nitrophenyl substrate hydrolysis, absorbance at […] nm, competitive model fit; format: biochemical; settings: 20 mM sodium phosphate pH 7.0, ~22 °C
T1 construct: gene Slin_6637; E. coli BL21(DE3); monomer 48215 Da calculated, 96 kDa dimer; primers encode N-term MPSLYTTAQ and C-term PIFGLTDVY
T1 sequence (D2QUW2 1-435): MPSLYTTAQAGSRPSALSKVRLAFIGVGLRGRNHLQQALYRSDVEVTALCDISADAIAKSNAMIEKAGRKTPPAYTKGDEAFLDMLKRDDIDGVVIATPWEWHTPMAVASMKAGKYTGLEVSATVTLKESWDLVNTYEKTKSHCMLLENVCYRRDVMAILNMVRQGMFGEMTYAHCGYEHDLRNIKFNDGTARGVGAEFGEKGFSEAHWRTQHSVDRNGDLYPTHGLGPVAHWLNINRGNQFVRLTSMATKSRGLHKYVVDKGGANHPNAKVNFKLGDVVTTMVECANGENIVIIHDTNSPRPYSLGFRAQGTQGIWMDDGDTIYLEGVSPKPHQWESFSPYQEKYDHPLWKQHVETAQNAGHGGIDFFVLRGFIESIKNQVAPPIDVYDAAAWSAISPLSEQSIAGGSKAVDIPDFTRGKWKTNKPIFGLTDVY

purified protein = substrate: CC(=O)N[C@H]1[C@@H](Oc2ccc([N+](=O)[O-])cc2)O[C@H](CO)[C@H](O)[C@@H]1O; assay: purified protein; format: biochemical, Spirosoma linguale; settings: 20 mM sodium phosphate pH 7.4, 25 °C

stoichiometry N [1]: 2
Molecule: Spirosoma linguale α-N-acetylgalactosaminidase (enzyme)

Ki [2]: 180 ± 24 µM
Molecule: CC(=O)N[C@H]1C(O)O[C@H](CO)[C@H](O)[C@@H]1O (some centres unmarked) [N-acetylgalactosamine]

B1: S. linguale α-NAGA (SlNAGA) (Spirosoma linguale DSM 74) (protein)
chain: T1 sequence (D2QUW2 1-435)
notes: E. coli BL21(DE3); monomer 48215 Da calculated, 96 kDa dimer; primers encode N-term MPSLYTTAQ and C-term PIFGLTDVY
Km (purified protein): 1070 ± 70 µM | kcat (purified protein): 173 s⁻¹ | kcat/Km (purified protein): 163000 M⁻¹ s⁻¹
